The record followed here is patent publication EP1731613A2 (DEGUSSA AG, dated 2006).

In the test the target is T1, Zwf sub-unit (Zwf protein) of glucose 6-phosphate dehydrogenase from Corynebacterium glutamicum ATCC13032 (Corynebacterium glutamicum ATCC13032).
T1 construct: also called Zwf gene product; 60 kDa protein
T1 chain: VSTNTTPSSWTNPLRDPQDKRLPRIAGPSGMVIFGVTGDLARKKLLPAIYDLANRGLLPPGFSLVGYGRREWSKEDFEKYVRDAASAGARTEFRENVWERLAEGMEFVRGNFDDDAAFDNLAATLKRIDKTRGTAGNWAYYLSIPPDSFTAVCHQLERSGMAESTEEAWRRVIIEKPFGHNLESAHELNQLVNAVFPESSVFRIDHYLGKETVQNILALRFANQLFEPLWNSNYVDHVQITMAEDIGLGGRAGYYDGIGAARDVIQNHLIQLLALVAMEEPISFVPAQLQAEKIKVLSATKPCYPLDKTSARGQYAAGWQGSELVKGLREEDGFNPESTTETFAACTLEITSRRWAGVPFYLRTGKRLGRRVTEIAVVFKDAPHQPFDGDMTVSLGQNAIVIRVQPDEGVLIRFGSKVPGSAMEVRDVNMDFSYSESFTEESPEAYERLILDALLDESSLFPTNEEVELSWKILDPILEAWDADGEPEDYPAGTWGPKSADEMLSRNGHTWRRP
In words: co-purification over DEAE, Red-Sepharose and 2'5'-ADP-sepharose and gel filtration (Superdex G200pg); SDS-PAGE. A general note: Size exclusion chromatography separates by hydrodynamic size, large species first.

B1: OpcA sub-unit (OpcA protein) of glucose 6-phosphate dehydrogenase from Corynebacterium glutamicum ATCC13032 (enzyme)
chain: MIFELPDTTTQQISKTLTRLRESGTQVTTGRVLTLIVVTDSESDVAAVTESTNEASREHPSRVIILVVGDKTAENKVDAEVRIGGDAGASEMIIMHLNGPVADKLQYVVTPLLLPDTPIVAWWPGESPKNPSQDPIGRIAQRRITDALYDRDDALEDRVENYHPGDTDMTWARLTQWRGLVASSLDHPPHSEITSVRLTGASGSTSVDLAAGWLARRLKVPVIREVTDAPTVPTDEFGTPLLAIQRLEIVRTTGSIIITIYDAHTLQVEMPESGNAPSLVAIGRRSESDCLSEELRHMDPDLGYQHALSGLSSVKLETV
notes: also called OpcA gene product; 30 kDa protein
Consider B1, for which the binding result is reported as “binds”.
